Source: PMC7920257, “Probing Protein Folding with Sequence-Reversed α-Helical Bundles” (International Journal of Molecular Sciences, 2021)
One block for each molecule: values may come before it.

Key:
RM6 = RM6 (UniProt P03051); assay: SAXS; 10 °C, 1–12 mg/mL; molecular mass from I(0) of the Guinier plot against BSA; rRop from the refolding protocol
rRM6 [1] = assay: as above
rRM6 [2] = assay: SEC; Sephacryl S-200 high-resolution column, 20 °C, 0.5 mL/min, after Ni-NTA; rRop from the refolding protocol gives an asymmetric peak
rRM6 [3] = assay: SEC-MALS; 100 uL loaded (wtRop 3 mg/mL, rRop 5.5 mg/mL, rRM6 3.5 mg/mL) on Superdex 75 (wtRop, rRop) or Superdex 200 (rRM6); rRop from the non-refolding protocol
rRop = assay: as above
[4] = target: the molecule itself; assay: as above

stoichiometry N (RM6): 4
Molecule: RM6 (from UniProt P03051 1-63) (natural protein)

stoichiometry N (rRM6 [1]): 4 | stoichiometry N (rRM6 [2]): 4 | stoichiometry N (rRM6 [3]): 4
Molecule: rRM6

stoichiometry N (rRop): 2
Molecule: rRop

B1: Rop (natural protein)
chain: MTKQEKTALNMARFIRSQTLTLLEKLNELDADEQADICESLHDHADELYRSCLARFGDDGENL
notes: homodimeric 4-alpha-helical bundle; also called wtRop; wild-type Rop
stoichiometry N [4]: 2
